Source: US20240325562A1 (LINXIS B V, published 2024)
Where a chain is given by its changes, count along the chain named.

Assays:
human IGF2R on cells [1] = biological target: T1, human IGF2R on cells (human, UniProt P11717 41-2491); experiment: cell-based or functional assay
rat IGF2R on cells [2] = biological target: T2, rat IGF2R on cells (rat, UniProt A0A8I6GLL6 43-2479); experiment: cell-based or functional assay
rat IGF2R on cells [3] = biological target: T2, rat IGF2R on cells; experiment: binding assay on SCC cells transgenically expressing rat IGF2R
Method: (§1) To examine whether 13F11-13E8 is cross-reactive against rodent IGF2R, the construct as well as its corresponding monomeric VHHs were conjugated to IRDye800CW (F11E8-IRD800, conjugation method as described in example 10.2) and the binding affinity was determined using a binding assay on SCC cells that transgenically expressed either murine IGF2R (mIGF2R), rIGF2R, or hIGF2R (FIGS. 12A-D).

murine IGF2R on cells = biological target: T3, murine IGF2R on cells (murine, UniProt Q07113 36-2483); experiment: binding assay on SCC cells transgenically expressing murine IGF2R
T3 construct: whole, on cells; also called mIGF2R
T3 sequence (Q07113 36-2483): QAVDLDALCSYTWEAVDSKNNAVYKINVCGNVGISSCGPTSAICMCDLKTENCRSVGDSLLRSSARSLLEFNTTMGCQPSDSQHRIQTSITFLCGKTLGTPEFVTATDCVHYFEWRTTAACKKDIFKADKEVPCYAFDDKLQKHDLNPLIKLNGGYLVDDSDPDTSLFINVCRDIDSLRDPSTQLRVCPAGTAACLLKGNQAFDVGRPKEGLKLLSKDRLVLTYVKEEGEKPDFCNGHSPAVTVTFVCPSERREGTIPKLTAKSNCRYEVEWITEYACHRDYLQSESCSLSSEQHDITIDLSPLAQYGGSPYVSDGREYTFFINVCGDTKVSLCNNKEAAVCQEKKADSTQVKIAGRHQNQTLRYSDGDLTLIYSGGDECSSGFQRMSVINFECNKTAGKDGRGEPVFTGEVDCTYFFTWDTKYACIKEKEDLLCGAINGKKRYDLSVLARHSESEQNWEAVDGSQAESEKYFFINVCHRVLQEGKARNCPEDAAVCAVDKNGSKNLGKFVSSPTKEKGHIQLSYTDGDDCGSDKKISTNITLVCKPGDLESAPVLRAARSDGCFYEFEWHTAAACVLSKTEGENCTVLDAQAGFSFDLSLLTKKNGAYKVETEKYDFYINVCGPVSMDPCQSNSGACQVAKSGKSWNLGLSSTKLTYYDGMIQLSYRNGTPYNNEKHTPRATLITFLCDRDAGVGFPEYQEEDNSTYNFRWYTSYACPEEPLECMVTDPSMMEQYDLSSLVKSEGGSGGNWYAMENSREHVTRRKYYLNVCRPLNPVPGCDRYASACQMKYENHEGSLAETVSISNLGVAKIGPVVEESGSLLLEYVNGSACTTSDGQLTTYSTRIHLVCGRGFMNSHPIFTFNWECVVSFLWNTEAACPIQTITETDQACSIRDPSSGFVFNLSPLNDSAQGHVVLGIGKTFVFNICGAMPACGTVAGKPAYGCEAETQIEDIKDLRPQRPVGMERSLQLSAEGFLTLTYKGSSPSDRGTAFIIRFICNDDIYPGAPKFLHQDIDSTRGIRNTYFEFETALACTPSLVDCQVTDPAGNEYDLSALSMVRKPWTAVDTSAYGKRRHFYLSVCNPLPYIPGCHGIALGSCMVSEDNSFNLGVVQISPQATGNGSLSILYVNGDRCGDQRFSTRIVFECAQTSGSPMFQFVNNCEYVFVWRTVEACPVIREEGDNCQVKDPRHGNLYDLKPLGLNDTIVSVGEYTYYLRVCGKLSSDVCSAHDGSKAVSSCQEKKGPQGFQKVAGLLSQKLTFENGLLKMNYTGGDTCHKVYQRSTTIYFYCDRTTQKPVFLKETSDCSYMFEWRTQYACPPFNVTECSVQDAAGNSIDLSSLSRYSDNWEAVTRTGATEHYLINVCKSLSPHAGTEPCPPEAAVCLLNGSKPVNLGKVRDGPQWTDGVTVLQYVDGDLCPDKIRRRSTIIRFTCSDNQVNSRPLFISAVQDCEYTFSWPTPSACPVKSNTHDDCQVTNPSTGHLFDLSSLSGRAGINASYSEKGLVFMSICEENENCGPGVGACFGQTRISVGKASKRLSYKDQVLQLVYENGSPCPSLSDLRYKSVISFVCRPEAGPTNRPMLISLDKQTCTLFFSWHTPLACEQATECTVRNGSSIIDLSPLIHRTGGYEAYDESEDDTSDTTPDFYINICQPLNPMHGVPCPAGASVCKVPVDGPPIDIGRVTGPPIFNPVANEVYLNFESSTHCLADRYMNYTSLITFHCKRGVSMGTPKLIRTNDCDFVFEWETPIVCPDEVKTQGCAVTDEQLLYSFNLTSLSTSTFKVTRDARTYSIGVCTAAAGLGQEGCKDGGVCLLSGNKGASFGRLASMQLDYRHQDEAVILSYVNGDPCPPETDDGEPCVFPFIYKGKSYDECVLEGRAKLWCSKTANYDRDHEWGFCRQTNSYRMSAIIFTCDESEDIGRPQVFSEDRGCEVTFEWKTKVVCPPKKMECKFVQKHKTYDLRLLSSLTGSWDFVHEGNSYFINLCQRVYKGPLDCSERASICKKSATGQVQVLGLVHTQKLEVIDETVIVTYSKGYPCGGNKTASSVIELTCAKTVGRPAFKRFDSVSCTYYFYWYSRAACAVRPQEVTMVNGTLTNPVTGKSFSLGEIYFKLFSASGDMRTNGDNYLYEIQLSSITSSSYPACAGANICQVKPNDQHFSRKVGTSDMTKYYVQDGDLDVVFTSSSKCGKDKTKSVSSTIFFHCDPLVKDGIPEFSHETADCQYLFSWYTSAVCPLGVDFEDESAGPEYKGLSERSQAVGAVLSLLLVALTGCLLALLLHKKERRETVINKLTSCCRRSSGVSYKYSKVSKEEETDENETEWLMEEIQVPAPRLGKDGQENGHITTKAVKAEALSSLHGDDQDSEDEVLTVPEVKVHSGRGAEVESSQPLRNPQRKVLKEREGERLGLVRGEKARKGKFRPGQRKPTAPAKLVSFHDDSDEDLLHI
Method: as §1

human IGF2R on cells [4] = biological target: T1, human IGF2R on cells; experiment: binding assay on SCC cells transgenically expressing human IGF2R
Method: as §1

[5] = biological target: T4, recombinant human extracellular domain of IGF2R (human, UniProt P11717 41-2304); experiment: direct binding assay of the fluorescent conjugate on immobilized hIGF2R-ECD, one-site specific binding fit
T4 construct: extracellular domain; Recombinant, immobilized on plates; also called hIGF2R-ECD; human IGF2R ectodomain (ECD)
Method: (§2) These conjugates were then subjected to direct binding assays on immobilized hIGF2R-ECD, meaning that plates were read out immediately after washing, without additional detection steps. […] For detailed analysis, binding parameters KD and Bₘₐₓ were calculated in Graphpad (version 8.3), using one-site specific binding analysis (FIG. 8D).

[6] = biological target: T4, recombinant human extracellular domain …; experiment: binding assay on immobilized hIGF2R-ECD, detection with anti-VHH antibody
Method: The 15 unique hIGF2R-binding VHH (Example 2.1, FIG. 2) were produced and purified as described in examples 3 and 4. The apparent affinities were determined through binding assay on immobilized hIGF2R-ECD. Briefly, three-fold serial dilution series, starting from 1 μM, of each VHH were plated onto hIGF2R-ECD coated plates. VHH were allowed to bind for two hours after which plates were washed. Then, bound VHH was detected using a VHH-specific IgG antibody, followed by an IRD800CW-conjugated IgG-specific antibody. Plates were read out by fluorimetry.

[7] = biological target: T4, recombinant human extracellular domain …; experiment: direct binding assay of the Alexa Fluor 647 conjugate on hIGF2R-ECD, one-site specific binding fit
Method: as §2
Based on their high affinity and binding to non-overlapping receptor epitopes, VHHs 13F11 and 13E8 were selected for the design of biparatopic and bivalent VHH constructs. Two VHHs were fused with a flexible linker, consisting of three Gly-Gly-Gly-Gly-Ser repeats (FIG. 8A). The sequences were codon optimized for expression in E. coli and obtained as synthesized DNA fragments from GeneArt. The DNA fragments encoding VHHs were cloned into a vector pET28-based vector introducing a C-terminal free cysteine for site-directed conjugation and His6 tag for IMAC purification (FIG. 8A). The VHH constructs were produced and purified as described in example 4. […] In a similar binding assay, IR dye 800 (IRD800) conjugates were prepared (as outlined in example 10.2) of the monomeric VHHs 13F11 and 13E8, the biparatopic VHH construct 13F11-13E8, the reciprocal biparatopic construct 13E8-13F11, the bivalent VHH construct 13F11-13F11, and the non-binding (control-) VHH R2. Conjugated constructs were then subjected to binding assay as described above.

[8] = biological target: T4, recombinant human extracellular domain …; experiment: competition assay on immobilized hIGF2R-ECD, competitor for 13F11-A647
Method: Biparatopic VHH constructs contain two VHH which bind to a different epitope, i.e. which are non-competitive binders. To identify (a) pair(s) of non-competitive binders, competition assays were performed. In the example shown, an Alexa fluor-conjugate of the high affine VHH 13F11 was used as the reporter VHH (13F11-A647, see example 10.2). In the assay, a non-saturating amount (10 nM) of 13F11-A647 was incubated with immobilized hIGF2R-ECD in the presence or absence of 250 nM unconjugated competitor VHH to allow competition to take place.

rat serum albumin = biological target: T5, rat serum albumin (rat, UniProt P02770 25-608); experiment: binding assay of the IRDye800 conjugate on serum albumin
T5 construct: also called RSA
T5 sequence (P02770 25-608 limits assumed): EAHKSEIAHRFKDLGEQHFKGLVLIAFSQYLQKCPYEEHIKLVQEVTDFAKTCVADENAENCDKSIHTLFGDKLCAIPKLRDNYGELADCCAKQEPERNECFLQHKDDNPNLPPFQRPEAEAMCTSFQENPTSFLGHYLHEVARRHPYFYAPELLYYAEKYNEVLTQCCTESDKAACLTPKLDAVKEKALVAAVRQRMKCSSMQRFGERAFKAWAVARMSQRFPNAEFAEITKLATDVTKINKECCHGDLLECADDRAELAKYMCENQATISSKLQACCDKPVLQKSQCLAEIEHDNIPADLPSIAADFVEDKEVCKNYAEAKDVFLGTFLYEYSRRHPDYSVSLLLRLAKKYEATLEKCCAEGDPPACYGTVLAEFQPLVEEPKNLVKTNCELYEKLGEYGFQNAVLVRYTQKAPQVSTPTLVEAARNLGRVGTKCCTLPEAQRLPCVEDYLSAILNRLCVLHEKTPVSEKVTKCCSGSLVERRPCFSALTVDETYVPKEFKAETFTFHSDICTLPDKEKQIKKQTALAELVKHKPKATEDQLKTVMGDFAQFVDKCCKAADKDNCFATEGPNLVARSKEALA

human serum albumin = biological target: T6, human serum albumin (human, UniProt P02768 25-609); experiment: as above
T6 construct: also called HSA

mouse serum albumin = biological target: T7, mouse serum albumin (mouse, UniProt P07724 25-608); experiment: as above
T7 construct: also called MSA
T7 sequence (P07724 25-608 limits assumed): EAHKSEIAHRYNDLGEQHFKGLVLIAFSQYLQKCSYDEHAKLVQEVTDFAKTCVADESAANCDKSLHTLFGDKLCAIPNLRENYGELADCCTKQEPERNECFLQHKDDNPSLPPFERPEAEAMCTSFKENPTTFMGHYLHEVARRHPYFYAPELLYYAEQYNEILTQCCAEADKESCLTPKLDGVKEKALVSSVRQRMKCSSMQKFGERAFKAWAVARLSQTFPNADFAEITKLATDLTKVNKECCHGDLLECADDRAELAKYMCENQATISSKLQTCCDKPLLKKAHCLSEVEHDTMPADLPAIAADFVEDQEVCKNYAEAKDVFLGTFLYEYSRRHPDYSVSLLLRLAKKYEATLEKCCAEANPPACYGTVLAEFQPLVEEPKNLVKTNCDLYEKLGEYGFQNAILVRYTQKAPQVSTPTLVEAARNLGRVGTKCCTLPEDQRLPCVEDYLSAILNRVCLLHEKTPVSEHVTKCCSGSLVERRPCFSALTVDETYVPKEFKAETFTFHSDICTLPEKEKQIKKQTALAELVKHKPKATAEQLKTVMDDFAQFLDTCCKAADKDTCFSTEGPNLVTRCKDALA

[9] = biological target: T8, recombinant hPDGFRB ectodomain (human, UniProt P09619 33-532); experiment: competition ELISA on human PDGFRB ECD, IRDye800-SP26P as reporter and unconjugated SP26P as competitor
T8 construct: extracellular domain; also called hPDGFRB-ECD; human PDGFRB ECD

[10] = biological target: T9, full-length human PDGFRB on cells (human, UniProt P09619 33-1106); experiment: binding assay on cells transgenically expressing human PDGFRB, FIG. 15C
T9 construct: whole, on cells; also called hPDGFRB; SCC-hPDGFRB
T9 sequence (P09619 33-1106): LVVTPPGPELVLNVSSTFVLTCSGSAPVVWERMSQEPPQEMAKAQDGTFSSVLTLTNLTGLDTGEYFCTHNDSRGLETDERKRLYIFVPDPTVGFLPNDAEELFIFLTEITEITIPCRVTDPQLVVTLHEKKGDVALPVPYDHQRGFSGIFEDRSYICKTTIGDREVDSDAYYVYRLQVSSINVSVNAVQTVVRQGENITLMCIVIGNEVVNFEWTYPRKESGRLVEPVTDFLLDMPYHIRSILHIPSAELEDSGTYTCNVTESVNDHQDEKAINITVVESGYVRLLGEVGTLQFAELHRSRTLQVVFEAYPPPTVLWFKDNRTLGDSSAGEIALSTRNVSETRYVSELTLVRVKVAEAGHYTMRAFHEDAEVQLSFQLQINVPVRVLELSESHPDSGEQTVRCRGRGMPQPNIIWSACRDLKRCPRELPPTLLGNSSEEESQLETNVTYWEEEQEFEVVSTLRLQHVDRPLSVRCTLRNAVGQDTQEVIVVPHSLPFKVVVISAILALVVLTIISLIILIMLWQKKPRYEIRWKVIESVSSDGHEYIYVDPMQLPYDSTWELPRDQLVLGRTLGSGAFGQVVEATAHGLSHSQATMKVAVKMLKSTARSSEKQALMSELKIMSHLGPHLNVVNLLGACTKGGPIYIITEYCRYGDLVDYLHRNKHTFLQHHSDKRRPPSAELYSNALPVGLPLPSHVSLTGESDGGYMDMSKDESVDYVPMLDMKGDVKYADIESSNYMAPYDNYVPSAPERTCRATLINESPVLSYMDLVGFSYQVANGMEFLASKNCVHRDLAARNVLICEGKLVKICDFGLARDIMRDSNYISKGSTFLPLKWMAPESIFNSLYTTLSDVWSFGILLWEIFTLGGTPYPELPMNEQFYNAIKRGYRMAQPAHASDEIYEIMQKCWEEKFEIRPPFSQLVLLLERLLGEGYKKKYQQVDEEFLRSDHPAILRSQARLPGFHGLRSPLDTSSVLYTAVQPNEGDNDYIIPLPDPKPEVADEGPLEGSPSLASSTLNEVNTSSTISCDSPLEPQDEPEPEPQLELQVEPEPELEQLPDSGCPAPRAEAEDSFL

B1: 13F11-13E8-IRD800 (bispecific antibody)
chain: EVQLVESGGRLVQPGDSLRLSCAASGRTFSDNAMGWFRQAPGKERRFVAGISWAGGSTYYSDSVKGRFTISRDNAKNTVYLQMNSLKPEDTAVYYCAAGLRAWVQRMPKDYNYWGQGTQVTVSSGGGGSGGGGSGGGGSEVQLVESGGGLVQAGGSLRLSCAASRSISPMGWYRQAPGKQRELVAIMPSSGPPIYADSVQGRFTISRDNAKNTVYLQMNSLKPEDTAVYYCNVGGGYWGQGTQVTVSS
modifications: IRDye 800CW coupled by maleimide to the C-terminal free cysteine, which is not in the letters
notes: Biparatopic tandem VHH; also called F11E8-IRD800; IRDye800-conjugated 13F11-13E8 (F11E8); not shown: C-terminal tail: free Cys, possible thrombin site and His6 tag
Human IGF2R on cells [1]
  endocytic rate constant, ke: ~1.5 min⁻¹
Rat IGF2R on cells [2]
  endocytic rate constant, ke: ~0.7 min⁻¹
Rat IGF2R on cells [3]
  Kd: < 10 nM
Murine IGF2R on cells
  Kd: < 10 nM
Human IGF2R on cells [4]
  Kd: < 10 nM

B2: 13E8-13F11-IRD800 (bispecific antibody, not shown: small tags and cut ends)
chain: EVQLVESGGGLVQAGGSLRLSCAASRSISPMGWYRQAPGKQRELVAIMPSSGPPIYADSVQGRFTISRDNAKNTVYLQMNSLKPEDTAVYYCNVGGGYWGQGTQVTVSSGGGGSGGGGSGGGGSEVQLVESGGRLVQPGDSLRLSCAASGRTFSDNAMGWFRQAPGKERRFVAGISWAGGSTYYSDSVKGRFTISRDNAKNTVYLQMNSLKPEDTAVYYCAAGLRAWVQRMPKDYNYWGQGTQVTVSS
modifications: IRDye 800CW coupled by maleimide to the C-terminal free cysteine, which is not in the letters
Human IGF2R on cells [1]
  endocytic rate constant, ke: ~1.5 min⁻¹
Rat IGF2R on cells [2]
  endocytic rate constant, ke: ~0.7 min⁻¹

B3: 13F11-A647 (VHH)
VHH: EVQLVESGGRLVQPGDSLRLSCAASGRTFSDNAMGWFRQAPGKERRFVAGISWAGGSTYYSDSVKGRFTISRDNAKNTVYLQMNSLKPEDTAVYYCAAGLRAWVQRMPKDYNYWGQGTQVTVSS
modifications: Alexa Fluor 647 is coupled by maleimide chemistry to the C-terminal free cysteine of the expression tail. The dye, that cysteine and the tag are not in the letters.
notes: Fluorescent conjugate of monomeric 13F11; also called labelled 13F11
[5]
  Kd: 1 nM

B4: 13F11 (VHH)
VHH: B3 VHH
notes: On phage in the phage ELISA; purified from E. coli in the other assays; also called native 13F11; unconjugated 13F11
[6]
  Kd: 0.23 nM

B5: 13F11-13E8-A647 (bispecific antibody)
chain: B1 chain
modifications: Alexa Fluor 647 coupled by maleimide to the C-terminal free cysteine, which is not in the letters
notes: Biparatopic tandem VHH; not shown: C-terminal tail: free Cys, possible thrombin site and His6 tag
[7]
  Kd: 2.5 nM

B6: 13E8-13F11-A647 (bispecific antibody)
chain: B2 chain
modifications: Alexa Fluor 647 coupled by maleimide to the C-terminal free cysteine, which is not in the letters
notes: Biparatopic tandem VHH, reciprocal order; not shown: C-terminal tail: free Cys, possible thrombin site and His6 tag
[7]
  Kd: 2.5 nM

B7: 13G10 (VHH)
VHH: EVQLVESGGGLVQAGGSLRLSCAASGLTFSSYTMAWYRQAPGKEREVVAAISSGDSIYHEDSVQGRFIISRDNAKNTVYLQMNSLKAEDTAVYYCRANGPGTYWGQGTQVTVSS
notes: On phage in the phage ELISA; purified from E. coli in the other assays
[8]
  binding result: binds

B8: 13C11 (VHH)
VHH: B7 VHH with D61G
notes: as for B7
[8]
  binding result: binds

B9: 13F11-13E8-ABD-IRD800 (other)
chain: EVQLVESGGRLVQPGDSLRLSCAASGRTFSDNAMGWFRQAPGKERRFVAGISWAGGSTYYSDSVKGRFTISRDNAKNTVYLQMNSLKPEDTAVYYCAAGLRAWVQRMPKDYNYWGQGTQVTVSSGGGGSGGGGSGGGGSEVQLVESGGGLVQAGGSLRLSCAASRSISPMGWYRQAPGKQRELVAIMPSSGPPIYADSVQGRFTISRDNAKNTVYLQMNSLKPEDTAVYYCNVGGGYWGQGTQVTVSSLAEAKVLANRELDKYGVSDYYKNLINNAKTVEGVKALIDEILAALP
Rat serum albumin
  Kd: 30 nM
Human serum albumin
  Kd: ~200 nM
Mouse serum albumin
  Kd: ~200 nM

B10: SP26P (VHH)
VHH: EVQLVESGGGLVQAGGSLRLSCAASGRSFSSSVMGWFRQTPGKEREFVAATRWTAASTHYADSVKGRFTISRDHAENAVFLQMNSLKPEDTAVYYCAAGNYLDTAQYRYNYWGQGTQVTVSS
modifications: In the competition assay the reporter copy carried IRDye800 on the C-terminal cysteine, which is not in the letters.
notes: From libraries 3 and 4 (raised against rPDGFRB)
[9]
  binding result: binds

B11: SP02P-SP26P (bispecific antibody, not shown: small tags and cut ends)
chain: EVQLVESGGGLVQAGGSLRLSCAASESISSIEQMGWFRQAPGKQRALVAINTYGGRTVYTNSVEGRFTMSRDSAKNMVYLQMTSLEPEDTAVYYCYAQTTAWRGGVWGQGTQVTVSSGGGGSGGGGSGGGGSEVQLVESGGGLVQAGGSLRLSCAASGRSFSSSVMGWFRQTPGKEREFVAATRWTAASTHYADSVKGRFTISRDHAENAVFLQMNSLKPEDTAVYYCAAGNYLDTAQYRYNYWGQGTQVTVSS
notes: also called SP02-SP26P
[10]
  Kd: < 5 nM
